This passage reports fluorescence value (FL2-H: PE; statistic not given) results from patent publication US20210163624A1.

Assay [1] deals with RMF peptide (…)/HLA-A0201 complex on the cell surface (human). The assay can be described thus: flow cytometry, T2 cells pulsed with WT1 (RMF) peptide 50 ug/ml, control mAb at 1 (ug/ml by paragraph 199); secondary alone (T2-WT1-2AB) prints 18.
For assay [2] the target is unchanged. The assay can be described thus: flow cytometry, T2 cells pulsed with WT1 (RMF) peptide 50 ug/ml, control mAb at 10 (ug/ml by paragraph 199); secondary alone (T2-WT1-2AB) prints 18. (In general: In flow cytometry, cells or beads pass a laser one at a time.)
Assay [3] shares this target. Put plainly: flow cytometry, T2 cells pulsed with WT1 (RMF) peptide 50 ug/ml, control mAb at 0.1 (ug/ml by paragraph 199); secondary alone (T2-WT1-2AB) prints 18.
For assay [4] the target is unchanged. Put plainly: flow cytometry, T2 cells pulsed with WT1 (RMF) peptide 50 ug/ml, control mAb at 0.01 (ug/ml by paragraph 199); secondary alone (T2-WT1-2AB) prints 18.

Take Isotype control human IgG1 (antibody): the fluorescence value (FL2-H: PE; statistic not given) in assay [1] came to 37.9; in assay [2], 31.1; in assay [3], 29.5; in assay [4], 31.8.
